Measurements reported in doi:10.1101/2025.10.11.681782.

What was measured:
[1] = target: DosR (D54E, activated form; called DosR/wild type in EMSA) D54E (Mycobacterium tuberculosis) (UniProt P9WMF9); assay: EMSA
[2] = target: DosR M194term (helix alpha10 truncated) D54E;del194-217 (Mycobacterium tuberculosis) (UniProt P9WMF9); assay: EMSA

For “GGCGGTTGGCAGACAACAGGGTCAATGGTCCCCAAGTGGATCACCGACGGGCGCGGACAAATGGCCCGCGCTTCGGGGACTTCTGTCCCTAGCCCTGGCCACGATGGGCTGGTCGGATCAAAGGCATCCGTTTCCATCGATTAGGAGGCAGGCACGTACGAAGGAAGGAT (double strand) [hspX promoter PCR product]”, the binding [1] was “binds” and the binding [2] was “binds more weakly”.
